Measured values published in patent US20210386837A1, “ACTIVE LOW MOLECULAR WEIGHT VARIANTS OF ANGIOTENSIN CONVERTING ENZYME 2 (ACE2) FOR THE TREATMENT OF DISEASES AND CONDITIONS OF THE EYE” (Northwestern University, priority 2020, published 2021).
Entries after “also recorded” stand apart in the source; their conditions may differ.

What was measured:
[1] = system: Angiotensin II; assay: enzymatic activity of ACE2 truncates; type: biochemical
[2] = system: Angiotensin II; conditions: as disclosed in U.S. Pat. No. 10,443,049; cited from earlier work
[3] = system: hTCEpi cells; assay: RT-qPCR of inflammation-related genes in siACE2-transfected hTCEpi cells treated with losartan; type: cell-based; conditions: 100 μM losartan, 24 hours
Description: To examine if ACE2 deficiency-induced cytokine production is due to an increase in AngII activity, we investigated whether treatment of corneal epithelial cells with the AngII type 1 receptor (AT1R) antagonist, losartan could rescue the phenotype. hTCEpi deficient in ACE2 were treated with 100 μm losartan for 24 hrs and the cytokine response was evaluated.
Immortalized corneal epithelial cells, hTCEpi, were cultured in keratinocyte serum free media (Thermo Fisher Scientific, Waltham, Mass., USA) as described before^39. For siRNA knock-down experiments, cells were transfected with 10 nM siRNA SMARTpools against ACE2 and non-target control (GE Dharmacon, Colorado, USA) as previously described^37. Two days after transfection, cells were treated with losartan (100 μM) for 24 hours, and processed for total RNA isolation.
Total RNAs were isolated from hTCEpi cells and purified with a miRNeasy kit (Qiagen, Hilden, Germany). Real-time qPCR (RT-qPCR) was performed with a Roche LightCycler 96 System using the Roche FastStart Essential DNA Green Master (Roche, Branchburg, N.J., USA) according to the manufacturer's instructions.
Unpaired t-test were performed to determine statistical significance. The data are shown as means±standard deviation (SD). The differences were considered significant for p values of <0.05. All experiments were replicated at least three times.

[4] = duration of action in vivo after one injection (enzymatic activity in plasma, blood pressure); conditions: determined by enzymatic activity in plasma and by biologic response (blood pressure)
[5] = anti-ACE2 immunofluorescence of cornea of ACE2-KO mice after NaOH treatment and topical administration; type: in vivo, mouse; conditions: cornea treated with NaOH for 30 s, then topical administration
Description: The corneas of ACE2-KO mice were treated with NaOH for 30 s and then were topically administered ACE2 1-618-ABD. The cornea were subjected to immunofluorescence using anti-ACE2 antibodies. (See FIG. 13).

[6] = ACE2 activity in eyes of ACE2-knockout mice after topical corneal application; type: in vivo, mouse; conditions: ACE2-KO mice, after one hour; for ACE2 activity in eyes: topical to cornea, 5 μg/μl in PBS or in 0.5% DMSO in PBS, vs untreated
Description: ACE2 activity was assessed in eyes isolated from ACE2-deficient mice.

1-522: ACE2 truncate, amino acids 1-522, not enzymatically active [Group 1-522]
enzyme activity of ACE2 truncate [1]: not active

1-605: ACE2 truncate, amino acids 1-605, C-terminal deletion relative to SEQ ID NO:1 [Group 1-605]
enzyme activity of ACE2 truncate [1]: enzymatically active | enzymatic activity of ACE2 fragment [2]: very high enzymatic activity

1-618: ACE2 truncate, human ACE2 amino acids 1-618 [Group 1-618]
enzyme activity of ACE2 truncate [1]: enzymatically active

1-619: ACE2 truncate, amino acids 1-619, C-terminal deletion relative to SEQ ID NO:1 [Group 1-619]
enzyme activity of ACE2 truncate [1]: enzymatically active | enzymatic activity of ACE2 fragment [2]: very high enzymatic activity

CCCCc1nc(Cl)c(CO)n1Cc1ccc(-c2ccccc2-c2nn[nH]n2)cc1 [losartan]
pro-inflammatory activity / cytokine storm-like phenotype in ACE2 depleted corneal epithelial cells [3]: partially rescued | expression of CCL2 ([3]; RT-qPCR): decreased; also recorded: significantly blocked | expression of CXCL8 ([3]; RT-qPCR): only slightly altered | expression of IL1B ([3]; RT-qPCR): only slightly altered | expression of ILIA ([3]; RT-qPCR): decreased; also recorded: significantly blocked | expression of TNFA ([3]; RT-qPCR): decreased; also recorded: significantly blocked | pro-inflammatory activity / cytokine storm-like phenotype in ACE2 depleted corneal epithelial cells ([3]; listed as Losartan): partially reverse

ACE2 1-618ABD: human ACE2 amino acids 1-618 fused to albumin binding domain (ABDCon) via a GS4 linker
duration of action of one injection [4]: at least 4 days | ACE2 staining by immunofluorescence in the cornea [5]: Appearance of ACE2 staining | effect of DMSO on detectable ACE2 activity in eyes ([6]; 5 μg/μl in 0.5% DMSO in PBS vs in PBS): enhance detectable ACE2 activity | ACE2 activity in eyes [6]: Detectable ACE2 activity was observed | ACE2 activity in eyes ([6]; listed as hr ACE2 1-618ABD): Recovery of ACE2 activity
